From US20220354938A1 come the findings set out here.

The experiment concerns the target C2 epitope-peptide (…, SEQ ID NO:21) / human HLA-A2 MHC class I molecule complex on the cell surface (human; human CMV).

Substance “TCR CMV-pp65-PE STAR™ multimer reagent (Altor Bioscience Corp., Miramar, Fla., U.S.)” yielded an iMFI of 10100 RFU and a percentage of pMHC I complex presenting cells of 35%.
